Values of other authors in paper PMC8002405.

Target: Human neonatal Fc receptor (hFcRn) (UniProt P55899+P61769)
Test: microscale thermophoresis (MST)
Details: pH 5.5

- KD: 900 nM
Substance: Human IgG1 (wild type)
